Numbered stars: 1 amine (or outer) side, 2 acyl side, 3 side chain; on linkers, the order of the positions; unused ones are H or OH. * marks the point of attachment. C20 diacid = O=C(O)CCCCCCCCCCCCCCCCCCC(=O)*; C18 diacid = O=C(O)CCCCCCCCCCCCCCCCC(=O)*; γGlu = O=C(O)[C@H](CCC(=O)[*:2])N[*:1]
T1: human amylin 3(a) receptor (human calcitonin receptor co-expressed with RAMP-3) on BHK570/CRE-luc cells (human, UniProt P30988 25-474; O60896 24-148)
T1 sequence (looked up) 1: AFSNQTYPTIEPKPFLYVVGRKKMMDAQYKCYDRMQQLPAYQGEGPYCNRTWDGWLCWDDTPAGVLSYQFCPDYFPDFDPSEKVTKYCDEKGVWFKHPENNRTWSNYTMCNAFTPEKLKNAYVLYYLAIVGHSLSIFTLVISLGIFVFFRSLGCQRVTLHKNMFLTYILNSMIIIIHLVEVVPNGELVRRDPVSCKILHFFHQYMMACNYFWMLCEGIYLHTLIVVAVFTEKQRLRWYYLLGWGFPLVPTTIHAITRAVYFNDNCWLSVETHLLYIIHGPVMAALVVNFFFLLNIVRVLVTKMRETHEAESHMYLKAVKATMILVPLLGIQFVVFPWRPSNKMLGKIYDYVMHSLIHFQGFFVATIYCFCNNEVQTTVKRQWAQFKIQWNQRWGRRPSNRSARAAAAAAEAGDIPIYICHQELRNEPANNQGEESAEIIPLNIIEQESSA
T1 sequence (looked up) 2: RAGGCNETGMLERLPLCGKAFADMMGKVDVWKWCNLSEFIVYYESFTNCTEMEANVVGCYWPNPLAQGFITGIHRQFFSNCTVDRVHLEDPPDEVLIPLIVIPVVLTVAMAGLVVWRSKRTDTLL

T2: human calcitonin receptor on BHK570/CRE-luc cells (human, UniProt P30988 25-474)
T2 sequence (looked up): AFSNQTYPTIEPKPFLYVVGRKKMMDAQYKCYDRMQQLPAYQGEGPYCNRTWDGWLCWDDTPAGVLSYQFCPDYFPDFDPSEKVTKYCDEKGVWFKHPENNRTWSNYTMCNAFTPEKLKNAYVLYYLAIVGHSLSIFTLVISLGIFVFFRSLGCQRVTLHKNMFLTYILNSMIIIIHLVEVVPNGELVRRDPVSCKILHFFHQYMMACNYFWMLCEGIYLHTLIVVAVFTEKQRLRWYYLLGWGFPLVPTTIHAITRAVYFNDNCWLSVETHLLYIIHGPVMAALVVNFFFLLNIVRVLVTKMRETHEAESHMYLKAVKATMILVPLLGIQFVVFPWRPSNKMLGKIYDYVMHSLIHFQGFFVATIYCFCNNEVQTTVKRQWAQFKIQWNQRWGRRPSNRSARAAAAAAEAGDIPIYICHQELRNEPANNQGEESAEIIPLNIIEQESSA


How the values were obtained:
[1] = molecular target: T1, human amylin 3(a) receptor (human …); test: cell-based or functional assay
[2] = molecular target: T2, human calcitonin receptor on …; test: cell-based or functional assay

Binder | hAmylin-R funct. EC50 (pM), tested with HSA [1] | hCTR funct. EC50 (pM), tested with HSA [2]
{C20 diacid-γGlu}-ASELSTAALGRLSAELHELATLPRTETGSGSY-NH2 (SMILES CC(C)C[C@H](NC(=O)[C@H](C)NC(=O)[C@H](C)NC(=O)[C@@H](NC(=O)[C@H](CO)NC(=O)[C@H](CC(C)C)NC(=O)[C@H](CCC(=O)O)NC(=O)[C@H](CO)NC(=O)[C@H](C)NC(=O)CC[C@H](NC(=O)CCCCCCCCCCCCCCCCCCC(=O)O)C(=O)O)[C@@H](C)O)C(=O)NCC(=O)N[C@@H](CCCNC(=N)N)C(=O)N[C@@H](CC(C)C)C(=O)N[C@@H](CO)C(=O)N[C@@H](C)C(=O)N[C@@H](CCC(=O)O)C(=O)N[C@@H](CC(C)C)C(=O)N[C@@H](Cc1c[nH]cn1)C(=O)N[C@@H](CCC(=O)O)C(=O)N[C@@H](CC(C)C)C(=O)N[C@@H](C)C(=O)N[C@H](C(=O)N[C@@H](CC(C)C)C(=O)N1CCC[C@H]1C(=O)N[C@@H](CCCNC(=N)N)C(=O)N[C@H](C(=O)N[C@@H](CCC(=O)O)C(=O)N[C@H](C(=O)NCC(=O)N[C@@H](CO)C(=O)NCC(=O)N[C@@H](CO)C(=O)N[C@@H](Cc1ccc(O)cc1)C(N)=O)[C@@H](C)O)[C@@H](C)O)[C@@H](C)O) [[N-terminal(C20 diacid-gGlu), des1, 30S, 31G, 33Y]mimylin] | 62 pM | 49 pM
{C20 diacid-γGlu}-ASELSTAALGRLSAELHELATLPRTETGSGSL-NH2 (SMILES CC(C)C[C@H](NC(=O)[C@H](CO)NC(=O)CNC(=O)[C@H](CO)NC(=O)CNC(=O)[C@@H](NC(=O)[C@H](CCC(=O)O)NC(=O)[C@@H](NC(=O)[C@H](CCCNC(=N)N)NC(=O)[C@@H]1CCCN1C(=O)[C@H](CC(C)C)NC(=O)[C@@H](NC(=O)[C@H](C)NC(=O)[C@H](CC(C)C)NC(=O)[C@H](CCC(=O)O)NC(=O)[C@H](Cc1c[nH]cn1)NC(=O)[C@H](CC(C)C)NC(=O)[C@H](CCC(=O)O)NC(=O)[C@H](C)NC(=O)[C@H](CO)NC(=O)[C@H](CC(C)C)NC(=O)[C@H](CCCNC(=N)N)NC(=O)CNC(=O)[C@H](CC(C)C)NC(=O)[C@H](C)NC(=O)[C@H](C)NC(=O)[C@@H](NC(=O)[C@H](CO)NC(=O)[C@H](CC(C)C)NC(=O)[C@H](CCC(=O)O)NC(=O)[C@H](CO)NC(=O)[C@H](C)NC(=O)CC[C@H](NC(=O)CCCCCCCCCCCCCCCCCCC(=O)O)C(=O)O)[C@@H](C)O)[C@@H](C)O)[C@@H](C)O)[C@@H](C)O)C(N)=O) [[N-terminal(C20 diacid-gGlu), des1, 30S, 31G, 33L]mimylin] | 168 pM | 78 pM
{C18 diacid-γGlu}-ASELSTAALGRLSAELHELATYPRTETGSGSP-NH2 (SMILES CC(C)C[C@H](NC(=O)[C@H](C)NC(=O)[C@H](C)NC(=O)[C@@H](NC(=O)[C@H](CO)NC(=O)[C@H](CC(C)C)NC(=O)[C@H](CCC(=O)O)NC(=O)[C@H](CO)NC(=O)[C@H](C)NC(=O)CC[C@H](NC(=O)CCCCCCCCCCCCCCCCC(=O)O)C(=O)O)[C@@H](C)O)C(=O)NCC(=O)N[C@@H](CCCNC(=N)N)C(=O)N[C@@H](CC(C)C)C(=O)N[C@@H](CO)C(=O)N[C@@H](C)C(=O)N[C@@H](CCC(=O)O)C(=O)N[C@@H](CC(C)C)C(=O)N[C@@H](Cc1c[nH]cn1)C(=O)N[C@@H](CCC(=O)O)C(=O)N[C@@H](CC(C)C)C(=O)N[C@@H](C)C(=O)N[C@H](C(=O)N[C@@H](Cc1ccc(O)cc1)C(=O)N1CCC[C@H]1C(=O)N[C@@H](CCCNC(=N)N)C(=O)N[C@H](C(=O)N[C@@H](CCC(=O)O)C(=O)N[C@H](C(=O)NCC(=O)N[C@@H](CO)C(=O)NCC(=O)N[C@@H](CO)C(=O)N1CCC[C@H]1C(N)=O)[C@@H](C)O)[C@@H](C)O)[C@@H](C)O) [[N-terminal(C18 diacid-gGlu), des1, 23Y, 30S, 31G]mimylin] | 24 pM | 15 pM
{C20 diacid-γGlu}-ASELSTAALGRLSAELHELATLPRTETGSGSH-NH2 (SMILES CC(C)C[C@H](NC(=O)[C@H](C)NC(=O)[C@H](C)NC(=O)[C@@H](NC(=O)[C@H](CO)NC(=O)[C@H](CC(C)C)NC(=O)[C@H](CCC(=O)O)NC(=O)[C@H](CO)NC(=O)[C@H](C)NC(=O)CC[C@H](NC(=O)CCCCCCCCCCCCCCCCCCC(=O)O)C(=O)O)[C@@H](C)O)C(=O)NCC(=O)N[C@@H](CCCNC(=N)N)C(=O)N[C@@H](CC(C)C)C(=O)N[C@@H](CO)C(=O)N[C@@H](C)C(=O)N[C@@H](CCC(=O)O)C(=O)N[C@@H](CC(C)C)C(=O)N[C@@H](Cc1c[nH]cn1)C(=O)N[C@@H](CCC(=O)O)C(=O)N[C@@H](CC(C)C)C(=O)N[C@@H](C)C(=O)N[C@H](C(=O)N[C@@H](CC(C)C)C(=O)N1CCC[C@H]1C(=O)N[C@@H](CCCNC(=N)N)C(=O)N[C@H](C(=O)N[C@@H](CCC(=O)O)C(=O)N[C@H](C(=O)NCC(=O)N[C@@H](CO)C(=O)NCC(=O)N[C@@H](CO)C(=O)N[C@@H](Cc1c[nH]cn1)C(N)=O)[C@@H](C)O)[C@@H](C)O)[C@@H](C)O) [[N-terminal(C20 diacid-gGlu), des1, 30S, 31G, 33H]mimylin] | 125 pM | 72 pM
{C20 diacid-γGlu}-ASELSTAALGRLSAELHELATLPRTETGSGSS-NH2 (SMILES CC(C)C[C@H](NC(=O)[C@H](C)NC(=O)[C@H](C)NC(=O)[C@@H](NC(=O)[C@H](CO)NC(=O)[C@H](CC(C)C)NC(=O)[C@H](CCC(=O)O)NC(=O)[C@H](CO)NC(=O)[C@H](C)NC(=O)CC[C@H](NC(=O)CCCCCCCCCCCCCCCCCCC(=O)O)C(=O)O)[C@@H](C)O)C(=O)NCC(=O)N[C@@H](CCCNC(=N)N)C(=O)N[C@@H](CC(C)C)C(=O)N[C@@H](CO)C(=O)N[C@@H](C)C(=O)N[C@@H](CCC(=O)O)C(=O)N[C@@H](CC(C)C)C(=O)N[C@@H](Cc1c[nH]cn1)C(=O)N[C@@H](CCC(=O)O)C(=O)N[C@@H](CC(C)C)C(=O)N[C@@H](C)C(=O)N[C@H](C(=O)N[C@@H](CC(C)C)C(=O)N1CCC[C@H]1C(=O)N[C@@H](CCCNC(=N)N)C(=O)N[C@H](C(=O)N[C@@H](CCC(=O)O)C(=O)N[C@H](C(=O)NCC(=O)N[C@@H](CO)C(=O)NCC(=O)N[C@@H](CO)C(=O)N[C@@H](CO)C(N)=O)[C@@H](C)O)[C@@H](C)O)[C@@H](C)O) [[N-terminal(C20 diacid-gGlu), des1, 30S, 31G, 33S]mimylin] | 328 pM | 154 pM
{C20 diacid-γGlu}-ASELSTAALGRLSAELHELATLPRTETGSGSF-NH2 (SMILES CC(C)C[C@H](NC(=O)[C@H](C)NC(=O)[C@H](C)NC(=O)[C@@H](NC(=O)[C@H](CO)NC(=O)[C@H](CC(C)C)NC(=O)[C@H](CCC(=O)O)NC(=O)[C@H](CO)NC(=O)[C@H](C)NC(=O)CC[C@H](NC(=O)CCCCCCCCCCCCCCCCCCC(=O)O)C(=O)O)[C@@H](C)O)C(=O)NCC(=O)N[C@@H](CCCNC(=N)N)C(=O)N[C@@H](CC(C)C)C(=O)N[C@@H](CO)C(=O)N[C@@H](C)C(=O)N[C@@H](CCC(=O)O)C(=O)N[C@@H](CC(C)C)C(=O)N[C@@H](Cc1c[nH]cn1)C(=O)N[C@@H](CCC(=O)O)C(=O)N[C@@H](CC(C)C)C(=O)N[C@@H](C)C(=O)N[C@H](C(=O)N[C@@H](CC(C)C)C(=O)N1CCC[C@H]1C(=O)N[C@@H](CCCNC(=N)N)C(=O)N[C@H](C(=O)N[C@@H](CCC(=O)O)C(=O)N[C@H](C(=O)NCC(=O)N[C@@H](CO)C(=O)NCC(=O)N[C@@H](CO)C(=O)N[C@@H](Cc1ccccc1)C(N)=O)[C@@H](C)O)[C@@H](C)O)[C@@H](C)O) [[N-terminal(C20 diacid-gGlu), des1, 30S, 31G, 33F]mimylin] | 94 pM | 73 pM
{C20 diacid-γGlu}-ASELSTAALGRLSAELHELATLPRTETGSGSG-NH2 (SMILES CC(C)C[C@H](NC(=O)[C@H](C)NC(=O)[C@H](C)NC(=O)[C@@H](NC(=O)[C@H](CO)NC(=O)[C@H](CC(C)C)NC(=O)[C@H](CCC(=O)O)NC(=O)[C@H](CO)NC(=O)[C@H](C)NC(=O)CC[C@H](NC(=O)CCCCCCCCCCCCCCCCCCC(=O)O)C(=O)O)[C@@H](C)O)C(=O)NCC(=O)N[C@@H](CCCNC(=N)N)C(=O)N[C@@H](CC(C)C)C(=O)N[C@@H](CO)C(=O)N[C@@H](C)C(=O)N[C@@H](CCC(=O)O)C(=O)N[C@@H](CC(C)C)C(=O)N[C@@H](Cc1c[nH]cn1)C(=O)N[C@@H](CCC(=O)O)C(=O)N[C@@H](CC(C)C)C(=O)N[C@@H](C)C(=O)N[C@H](C(=O)N[C@@H](CC(C)C)C(=O)N1CCC[C@H]1C(=O)N[C@@H](CCCNC(=N)N)C(=O)N[C@H](C(=O)N[C@@H](CCC(=O)O)C(=O)N[C@H](C(=O)NCC(=O)N[C@@H](CO)C(=O)NCC(=O)N[C@@H](CO)C(=O)NCC(N)=O)[C@@H](C)O)[C@@H](C)O)[C@@H](C)O) [[N-terminal(C20 diacid-gGlu), des1, 30S, 31G, 33G]mimylin] | 435 pM | 239 pM
